Molecular target: the molecule itself
Assay: SEC; size-exclusion chromatography, in solution; data not shown

B1: Glutamate-1-semialdehyde-2,1-aminomutase from Arabidopsis thaliana (AtGSA1) (enzyme)
chain: not shown
notes: The sense primer puts a TEV site (ENLYFQG) directly before VDEKKKS, so a Gly may remain at the N-terminus after cleavage (surmised from the primer); The protein retains the cofactors PMP/PLP; The first six N-terminal residues are not modelled in the structure; also called GSAM; glutamate-1-semialdehyde aminotransferase; source: E. coli BL21(DE3), purified (nickel-nitrilotriacetic acid column, TEV …)
  stoichiometry N: 2

Source: article PMC4909244, “Crystal structure of glutamate-1-semialdehyde-2,1-aminomutase from Arabidopsis thaliana” (Acta Crystallographica. Section F, Structural Biology …, 2016)
